{"source": "patent US6187552A", "about": "“Method for identifying inhibitors of JAK2/cytokine receptor binding” (Pharmacia & Upjohn Company, priority 1998, dated 2001)", "key": {"JAK2 [1]": {"target": "T1, JAK2 (Homo sapiens, UniProt O60674)", "T1 sequence (O60674 3-1132)": "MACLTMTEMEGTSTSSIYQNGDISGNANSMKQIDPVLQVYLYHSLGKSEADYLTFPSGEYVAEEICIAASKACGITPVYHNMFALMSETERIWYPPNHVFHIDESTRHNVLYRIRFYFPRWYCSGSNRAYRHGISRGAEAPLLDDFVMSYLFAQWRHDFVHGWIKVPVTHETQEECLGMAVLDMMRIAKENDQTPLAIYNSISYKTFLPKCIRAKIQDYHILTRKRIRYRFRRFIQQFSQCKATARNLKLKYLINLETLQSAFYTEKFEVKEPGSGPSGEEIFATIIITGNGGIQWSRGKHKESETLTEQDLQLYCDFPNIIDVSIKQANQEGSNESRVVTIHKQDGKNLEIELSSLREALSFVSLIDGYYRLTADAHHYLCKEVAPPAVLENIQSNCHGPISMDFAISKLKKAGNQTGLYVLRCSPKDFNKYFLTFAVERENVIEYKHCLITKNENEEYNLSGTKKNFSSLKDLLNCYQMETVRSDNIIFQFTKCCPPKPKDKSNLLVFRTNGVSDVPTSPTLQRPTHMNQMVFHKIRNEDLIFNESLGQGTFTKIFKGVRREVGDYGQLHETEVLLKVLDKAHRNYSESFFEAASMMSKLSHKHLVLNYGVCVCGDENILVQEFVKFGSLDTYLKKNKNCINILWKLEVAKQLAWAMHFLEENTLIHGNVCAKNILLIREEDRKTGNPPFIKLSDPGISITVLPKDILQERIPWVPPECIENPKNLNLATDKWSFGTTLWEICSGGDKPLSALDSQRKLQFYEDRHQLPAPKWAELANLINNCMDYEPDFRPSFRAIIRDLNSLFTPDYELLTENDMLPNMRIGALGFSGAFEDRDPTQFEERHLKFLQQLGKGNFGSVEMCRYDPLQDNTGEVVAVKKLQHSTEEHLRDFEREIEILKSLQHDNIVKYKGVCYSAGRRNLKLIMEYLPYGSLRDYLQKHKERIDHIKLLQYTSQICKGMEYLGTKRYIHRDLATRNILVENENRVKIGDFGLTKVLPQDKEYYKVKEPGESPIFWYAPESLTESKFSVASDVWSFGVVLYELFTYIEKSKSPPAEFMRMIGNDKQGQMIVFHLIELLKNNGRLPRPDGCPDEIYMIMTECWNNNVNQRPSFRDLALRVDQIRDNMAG", "test": "SPA: binding of 3H-JAK2 to βc peptides on streptavidin-coated beads", "set-up": "NJAK2 = N-terminal 294 residues", "description": "Cells were lysed by dounce homogenization (20 strokes) in 1X phosphate buffered saline (PBS), pH 7.5 at 4 C. […] For some experiments, the JAK2 protein (0.15 mg/ml), aliquoted into 7 equivalent tubes, was then subjected to ultracentrifugation in an Airfuge using an A-110 rotor at an average of 164,000×g for a period of 6 hours at ambient temperature. At zero time, and at each subsequent hour thereafter, a tube of JAK2 was removed for analyses (ELISA, SDS polyacrylamide gel electrophoresis, and Western blotting).\nThree different labeling reactions were done using ^3 H-N-succinimidyl propionate (^3 H-NSP, Amersham Life Sciences, Arlington Heights, Ill.). One reaction was done using 0.5 mg of purified JAK2 in 0.1 M borate buffer, pH 8.5, with a reaction volume of 150 μl and an incubation time of one hour on ice with dried 1 mCi of ^3 H-NSP (toluene was removed using a stream of nitrogen). […] Another reaction was done using the buffer 0.1 M sodium phosphate, pH 8.0, and a similar volume as before. One milligram of JAK2 in 1.2 ml of phosphate buffer was incubated for three hours on ice. […] A third reaction was done using 2.5 mg of purified JAK2 in 0.1 m sodium phosphate, pH 8.0, and 2.5 ml volume. It was incubated with 5 mCi of dried ^3 H-NSP on ice for 2 hours. […] All three products were separated from unincorporated label using PD-10 columns (Pharmacia Biotech, Uppsala, Sweden) pre-equilibrated with 20 mM Tris, pH 8.0, 0.15 M NaCl.\nTriplicate reactions were done for each data point. The buffer used in all the assays was 35 mM sodium phosphate, 150 mM NaCl, pH 8.0, 10% glycerol. Biotinylated peptides were allowed to bind to streptavidin-coated SPA beads (Amersham Life Sciences, Arlington Heights, Ill., catalog # RPNQ0006) with either less than saturating peptide or excess peptide. […] Under less than saturating conditions, beads and 40 pmole peptide were added to the assay plate well and incubated for one hour with gentle shaking on a Titer plate shaker (Lab-Line Instruments, Inc., Melrose Park, Ill.) at 600 rpm and not washed. […] The plates were then read on a MicroBeta (Wallac) set to read scintillation due to tritium.\nEither ^3 H-JAK2 or ^3 H-NJAK2 was added to the wells and, after incubation, the signals measured. […] A competition reaction was also done by adding 5 to 10-fold excess unlabeled JAK2 in those reactions."}, "JAK2 [2]": {"target": "T1, JAK2", "test": "ELISA binding of JAK2 to immobilized βc peptides", "set-up": "Y918N clone error corrected to Tyr", "description": "βc peptides corresponding to the proposed JAK2 binding domain (Table 1) were serially diluted and bound 16 hours at room temperature to streptavidin coated 96-well plates (Boehringer-Mannheim, Indianapolis, Ind.) and blocked at 37° with 1% fetal bovine serum in PBS. JAK2 protein was serially diluted on the plate and allowed to bind for 1 hour at room temperature. Plates were washed between incubations with ELISA wash (PBS with 0.04% TWEEN 20). Detection was via anti-FLAG antibody (10 μg/ml, Kodak, New Haven, Conn.) followed by anti-mouse Ig conjugated to peroxidase (1:5000 dilution, Boehringer Mannheim) and 1 mg/ml 2,2'-azinobis(3-ethylbenzthiazolinesulfonic acid) (Sigma), 0.003% H2 O2, 28 mM citric acid, 44 mM Na2 HPO4.\nThe ELISA assay worked best when the biotinylated βc peptides were immobilized on a streptavidin 96-well plate and the JAK2 was allowed to bind. A dual titration of βc peptides vs. JAK2 was performed (FIG. 24). Peptide 1 [SEQ ID NO:11] (FIG. 24 A) and peptide 2 [SEQ ID NO:12] […] Because 0.4 μM peptide was calculated to saturate the number of biotin binding sites in each well, it was expected that the amount of JAK2 binding should saturate at this quantity of peptide. […] (FIGS. 24 C and D) but peptides 5 and 6 [SEQ ID NOS:15 and 16]"}}, "data": [{"sequence": "GIYGYRLRRKWEEKIPNPSKSHLFQNGSAELWP [peptide 4, βc peptide, N-terminal truncation]", "values": [{"measurement": "binding in the SPA, comparison of peptides", "setting": "JAK2 [1]", "result": "binds better than peptide 3"}, {"measurement": "suitability in the SPA", "setting": "JAK2 [1]", "result": "two most optimal"}, {"measurement": "signal-to-noise ratio", "setting": "JAK2 [1]; 40 pmole (0.17 μg) peptide per reaction, without optimization", "result": 4.5}, {"measurement": "signal to noise ratio", "setting": "JAK2 [1]; 5.5 nM JAK2, κ-casein present, FIG. 17B", "result": 14}, {"measurement": "signal-to-noise ratio", "setting": "JAK2 [1]; BSA 0.1 mg/ml or 0.5 mg/ml (either concentration), FIG. 16", "result": 5}, {"measurement": "signal-to-noise ratio", "setting": "JAK2 [1]; BSA experiment, no additions, FIG. 16", "result": 4}, {"measurement": "amount of JAK2 at which binding reaches saturation", "setting": "JAK2 [1]; binding curve, peptide 4, FIG. 17A", "result": "about 40 pmole"}, {"measurement": "apparent Kd", "setting": "JAK2 [1]; binding curve, varying labeled JAK2, FIG. 17A", "result": "very low apparent Kd"}, {"measurement": "signal-to-noise ratio", "setting": "JAK2 [1]; excess peptide, no κ-casein, FIG. 15", "result": 10}, {"measurement": "signal-to-noise ratio", "setting": "JAK2 [1]; excess peptide, κ-casein 1 mg/ml during peptide binding to beads, FIG. 15", "result": 35}, {"measurement": "strength of binding (linear increase with JAK2)", "setting": "JAK2 [1]; less than saturating JAK2, FIG. 17B", "result": "very strong"}, {"measurement": "activity profile in binding 3H-JAK2 (signal)", "setting": "JAK2 [1]; less than saturating peptide, 40 pmole per reaction, 3H-JAK2, FIG. 12A", "result": "peptide 4>peptide 3>peptide 5>peptide 6>peptides 1 and 2"}, {"measurement": "overall signals and signal-to-noise ratios, peptide and labeled JAK2 mixed prior to adding beads", "setting": "JAK2 [1]; mixed one hour before beads, versus peptide bound to bead first, FIG. 13", "result": "lower overall signals and signal-to-noise ratios"}, {"measurement": "activity profile, peptide and labeled JAK2 mixed prior to adding beads", "setting": "JAK2 [1]; mixed one hour before beads, FIG. 13", "result": "same activity profile"}, {"measurement": "suitability for the ELISA", "setting": "JAK2 [2]", "result": "appear optimal"}]}]}
